B1: Guanyl-specific ribonuclease T1, P00651 (parent)
chain: MMYSKLLTLTTLLLPTALALPSLVERACDYTCGSNCYSSSDVSTAQAAGYQLHEDGETVGSNSYPHKYNNYEGFDFSVSSPYYEWPILSSGDVYSGGSPGADRVVFNENNQLAGVITHTGASGNNFVECT

Variants of: B1
Settings: Aspergillus oryzae (strain ATCC 42149 / RIB 40), 0 °C, Urea, CD, reversible: yes, structure 1RN1, whole UniProt chain shown

Variant	ddG of mutation (higher = less stable) (pH 2.5, glycine 30 mM) [kcal/mol]	denaturant m value (pH 2.5, glycine 30 mM) [kcal/mol/M]	denaturant midpoint (higher = more stable) (pH 2.5, glycine 30 mM) [M]	ddG of mutation (higher = less stable) (pH 7, MOPS 30 mM) [kcal/mol]	denaturant m value (pH 7, MOPS 30 mM) [kcal/mol/M]	denaturant midpoint (higher = more stable) (pH 7, MOPS 30 mM) [M]
MMYSKLLTLTTLLLPTALALPSLVERACDYTCGSNCYSSSDVSTAQNAGYQLHEDGETVGSNSYPHKYNNYEGFDFSVSSPYYEWPILSSGDVYSGGSPGADRVVFNENNQLAGVITHTGASGNNFVECT [A47N]	-0.34	1.72	2.99	–	–	–
MMYSKLLTLTTLLLPTALALPSLVERACDYTCGSNCYSSSDVSTAQYAGYQLHEDGETVGSNSYPHKYNNYEGFDFSVSSPYYEWPILSSGDVYSGGSPGADRVVFNENNQLAGVITHTGASGNNFVECT [A47Y]	0.39	1.69	2.54	–	–	–
MMYSKLLTLTTLLLPTALALPSLVERACDYTCGSNCYSSSDVSTAQKAGYQLHEDGETVGSNSYPHKYNNYEGFDFSVSSPYYEWPILSSGDVYSGGSPGADRVVFNENNQLAGVITHTGASGNNFVECT [A47K]	0.51	1.7	2.47	–	–	–
MMYSKLLTLTTLLLPTALALPSLVERACDYTCGSNCYSSSDVSTAQGAGYQLHEDGETVGSNSYPHKYNNYEGFDFSVSSPYYEWPILSSGDVYSGGSPGADRVVFNENNQLAGVITHTGASGNNFVECT [A47G]	0.9	1.71	2.23	–	–	–
MMYSKLLTLTTLLLPTALALPSLVERACDYTCGSNCYSSSDVSTAQIAGYQLHEDGETVGSNSYPHKYNNYEGFDFSVSSPYYEWPILSSGDVYSGGSPGADRVVFNENNQLAGVITHTGASGNNFVECT [A47I]	0.44	1.57	2.51	–	–	–
MMYSKLLTLTTLLLPTALALPSLVERACDYTCGSNCYSSSDVSTAQEAGYQLHEDGETVGSNSYPHKYNNYEGFDFSVSSPYYEWPILSSGDVYSGGSPGADRVVFNENNQLAGVITHTGASGNNFVECT [A47E]	-0.05	1.52	2.81	0.69	1.14	3.75
MMYSKLLTLTTLLLPTALALPSLVERACDYTCGSNCYSSSDVSTAQVAGYQLHEDGETVGSNSYPHKYNNYEGFDFSVSSPYYEWPILSSGDVYSGGSPGADRVVFNENNQLAGVITHTGASGNNFVECT [A47V]	0.66	1.77	2.38	–	–	–
MMYSKLLTLTTLLLPTALALPSLVERACDYTCGSNCYSSSDVSTAQDAGYQLHEDGETVGSNSYPHKYNNYEGFDFSVSSPYYEWPILSSGDVYSGGSPGADRVVFNENNQLAGVITHTGASGNNFVECT [A47D]	-0.33	1.59	2.98	0.71	1.24	3.73
MMYSKLLTLTTLLLPTALALPSLVERACDYTCGSNCYSSSDVSTAQRAGYQLHEDGETVGSNSYPHKYNNYEGFDFSVSSPYYEWPILSSGDVYSGGSPGADRVVFNENNQLAGVITHTGASGNNFVECT [A47R]	0.41	1.65	2.53	–	–	–
MMYSKLLTLTTLLLPTALALPSLVERACDYTCGSNCYSSSDVSTAQSAGYQLHEDGETVGSNSYPHKYNNYEGFDFSVSSPYYEWPILSSGDVYSGGSPGADRVVFNENNQLAGVITHTGASGNNFVECT [A47S]	0.49	1.67	2.48	0.4	1.22	3.99
MMYSKLLTLTTLLLPTALALPSLVERACDYTCGSNCYSSSDVSTAQTAGYQLHEDGETVGSNSYPHKYNNYEGFDFSVSSPYYEWPILSSGDVYSGGSPGADRVVFNENNQLAGVITHTGASGNNFVECT [A47T]	0.57	1.6	2.43	–	–	–
MMYSKLLTLTTLLLPTALALPSLVERACDYTCGSNCYSSSDVSTAQWAGYQLHEDGETVGSNSYPHKYNNYEGFDFSVSSPYYEWPILSSGDVYSGGSPGADRVVFNENNQLAGVITHTGASGNNFVECT [A47W]	0.3	1.56	2.6	–	–	–
MMYSKLLTLTTLLLPTALALPSLVERACDYTCGSNCYSSSDVSTAQMAGYQLHEDGETVGSNSYPHKYNNYEGFDFSVSSPYYEWPILSSGDVYSGGSPGADRVVFNENNQLAGVITHTGASGNNFVECT [A47M]	0.15	1.6	2.69	–	–	–
MMYSKLLTLTTLLLPTALALPSLVERACDYTCGSNCYSSSDVSTAQHAGYQLHEDGETVGSNSYPHKYNNYEGFDFSVSSPYYEWPILSSGDVYSGGSPGADRVVFNENNQLAGVITHTGASGNNFVECT [A47H]	0.56	1.79	2.44	0.17	1.27	4.18
MMYSKLLTLTTLLLPTALALPSLVERACDYTCGSNCYSSSDVSTAQQAGYQLHEDGETVGSNSYPHKYNNYEGFDFSVSSPYYEWPILSSGDVYSGGSPGADRVVFNENNQLAGVITHTGASGNNFVECT [A47Q]	–	–	–	0.4	1.12	3.99
MMYSKLLTLTTLLLPTALALPSLVERACDYTCGSNCYSSSDVSTAQFAGYQLHEDGETVGSNSYPHKYNNYEGFDFSVSSPYYEWPILSSGDVYSGGSPGADRVVFNENNQLAGVITHTGASGNNFVECT [A47F]	0.57	1.69	2.43	–	–	–
MMYSKLLTLTTLLLPTALALPSLVERACDYTCGSNCYSSSDVSTAQCAGYQLHEDGETVGSNSYPHKYNNYEGFDFSVSSPYYEWPILSSGDVYSGGSPGADRVVFNENNQLAGVITHTGASGNNFVECT [A47C]	0.74	1.56	2.33	–	–	–
MMYSKLLTLTTLLLPTALALPSLVERACDYTCGSNCYSSSDVSTAQLAGYQLHEDGETVGSNSYPHKYNNYEGFDFSVSSPYYEWPILSSGDVYSGGSPGADRVVFNENNQLAGVITHTGASGNNFVECT [A47L]	0.13	1.64	2.7	–	–	–

Reference: FireProtDB (doi:10.1021/bi9707180)
